These results are taken from the supplement of paper PMC5998384.

Series [1] deals with HeLa Kyoto. The series is described as follows: solubility in G1/S (NP-40 vs SDS abundance) (log2 ratio); higher = more soluble. Conditions: cell cycle stage: G1/S.
For series [2], the system named is HeLa Kyoto. The series is described as follows: melting temperature (median over replicates), in situ; higher = more thermally stable.
In series [3] the test system is HeLa Kyoto. Put plainly: solubility change mitosis vs G1/S (difference of NP-40 vs SDS log2 ratios) (log2 ratio difference); higher = more soluble in mitosis.
Series [4] has as its system HeLa Kyoto. The series is described as follows: thermal stability score vs G1/S (z-score of summed log2 fold changes over temperatures); higher = more thermally stable than in G1/S.
[5] abbreviates: cell cycle stage: early G1 (4.5 h after nocodazole release).
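Wherever melting temperature (median over replicates), in situ is given: HeLa Kyoto cells synchronized by double thymidine or nocodazole block, proteins quantified by TMT10plex mass spectrometry, three independent biological replicates.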
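Wherever solubility change mitosis vs G1/S (difference of NP-40 vs SDS log2 ratios) is given: synchronized HeLa Kyoto cells (double thymidine block for G1/S, nocodazole release for mitosis), protein amounts in NP-40 versus SDS lysates quantified by mass spectrometry, three biological replicates.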
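Wherever solubility in G1/S (NP-40 vs SDS abundance) is given: HeLa Kyoto cells arrested at G1/S by double thymidine block, proteins quantified by TMT10plex mass spectrometry in mild NP-40 versus SDS extracts, three biological replicates.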
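Wherever thermal stability score vs G1/S (z-score of summed log2 fold changes over temperatures) is given: synchronized HeLa Kyoto cells, proteins quantified by TMT10plex mass spectrometry, three biological replicates, mitosis taken 0.5 h after nocodazole release, G1/S directly after double thymidine block.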

In the case of “MNTEAEQQLLHHARNGNAEEVRQLLETMARNEVIADINCKGRSKSNLGWTPLHLACYFGHRQVVQDLLKAGAEVNVLNDMGDTPLHRAAFTGRKELVMLLLEYNADTTIVNGSGQTAKEVTHAEEIRSMLEAVERTQQRKLEELLLAAAREGKTTELTALLNRPNPPDVNCSDQLGNTPLHCAAYRAHKQCALKLLRSGADPNLKNKNDQKPLDLAQGAEMKHILVGNKVIYKALKRYEGPLWKSSRFFGWRLFWVVLEHGVLSWYRKQPDAVHNIYRQGCKHLTQAVCTVKSTDSCLFFIKCFDDTIHGFRVPKNSLQQSREDWLEAIEEHSAYSTHYCSQDQLTDEEEEDTVSAADLKKSLEKAQSCQQRLDREISNFLKMIKECDMAKEMLPSFLQKVEVVSEASRETCVALTDCLNLFTKQEGVRNFKLEQEQEKNKILSEALETLATEHHELEQSLVKGSPPASILSEDEFYDALSDSESERSLSRLEAVTARSFEEEGEHLGSRKHRMSEEKDCGGGDALSNGIKKHRTSLPSPMFSRNDFSIWSILRKCIGMELSKITMPVIFNEPLSFLQRLTEYMEHTYLIHKASSLSDPVERMQCVAAFAVSAVASQWERTGKPFNPLLGETYELVRDDLGFRLISEQVSHHPPISAFHAEGLNNDFIFHGSIYPKLKFWGKSVEAEPKGTITLELLEHNEAYTWTNPTCCVHNIIVGKLWIEQYGNVEIINHKTGDKCVLNFKPCGLFGKELHKVEGYIQDKSKKKLCALYGKWTECLYSVDPATFDAYKKNDKKNTEEKKNSKQMSTSEELDEMPVPDSESVFIIPGSVLLWRIAPRPPNSAQMYNFTSFAMVLNEVDKDMESVIPKTDCRLRPDIRAMENGEIDQASEEKKRLEEKQRAARKNRSKSEEDWKTRWFHQGPNPYNGAQDWIYSGSYWDRNYFNLPDIY [OSBPL1A]”, the “solubility in G1/S (log2)” value with HeLa Kyoto [1] was 0.0257. Besides, the melting temperature with HeLa Kyoto [2] (cell cycle stage: G1/S) and with HeLa Kyoto [2] (cell cycle stage: mitosis) was 51 °C in each case. Moreover, in the series with HeLa Kyoto [3], the “solubility change mitosis (log2)” value was -0.0641. Besides, the thermal stability score in the series with HeLa Kyoto [4] (setting [5]) was -0.0179; in the series on HeLa Kyoto [4] (cell cycle stage: mitosis) it was -0.158.
In the case of “MNTVLSRANSLFAFSLSVMAALTFGCFITTAFKDRSVPVRLHVSRIMLKNVEDFTGPRERSDLGFITFDITADLENIFDWNVKQLFLYLSAEYSTKNNALNQVVLWDKIVLRGDNPKLLLKDMKTKYFFFDDGNGLKGNRNVTLTLSWNVVPNAGILPLVTGSGHVSVPFPDTYEITKSY [SPCS3]”, the “solubility in G1/S (log2)” value in the series on HeLa Kyoto [1] stood at 0.0331. Besides, the melting temperature with HeLa Kyoto [2] (cell cycle stage: G1/S) was found to be 53.5 °C; in the series with HeLa Kyoto [2] (cell cycle stage: mitosis), 53.8 °C. For the same sequence, the “solubility change mitosis (log2)” value in the series on HeLa Kyoto [3] was -0.0576. The thermal stability score with HeLa Kyoto [4] (setting [5]) turned out to be 0.503; with HeLa Kyoto [4] (cell cycle stage: mitosis), 1.67.
As to “MNVTPEVKSRGMKFAEEQLLKHGWTQGKGLGRKENGITQALRVTLKQDTHGVGHDPAKEFTNHWWNELFNKTAANLVVETGQDGVQIRSLSKETTRYNHPKPNLLYQKFVKMATLTSGGEKPNKDLESCSDDDNQGSKSPKILTDEMLLQACEGRTAHKAARLGITMKAKLARLEAQEQAFLARLKGQDPGAPQLQSESKPPKKKKKKRRQKEEEEATASERNDADEKHPEHAEQNIRKSKKKKRRHQEGKVSDEREGTTKGNEKEDAAGTSGLGELNSREQTNQSLRKGKKKKRWHHEEEKMGVLEEGGKGKEAAGSVRTEEVESRAYADPCSRRKKRQQQEEEDLNLEDRGEETVLGGGTREAESRACSDGRSRKSKKKRQQHQEEEDILDVRDEKDGGAREAESRAHTGSSSRGKRKRQQHPKKERAGVSTVQKAKKKQKKRD [GPATCH4]”, in the series on HeLa Kyoto [1], the “solubility in G1/S (log2)” value was -1.28. Further, the melting temperature with HeLa Kyoto [2] (cell cycle stage: G1/S) worked out at 47.5 °C; with HeLa Kyoto [2] (cell cycle stage: mitosis), 48.6 °C. The “solubility change mitosis (log2)” value with HeLa Kyoto [3] turned out to be 0.885. Further, the thermal stability score in the series on HeLa Kyoto [4] (setting [5]) was 1.12; in the series with HeLa Kyoto [4] (cell cycle stage: mitosis), 2.93.
On to “MNWNKGGPGTKRGFGFGGFAISAGKKEEPKLPQQSHSAFGATSSSSGFGKSAPPQLPSFYKIGSKRANFDEENAYFEDEEEDSSNVDLPYIPAENSPTRQQFHSKPVDSDSDDDPLEAFMAEVEDQAARDMKRLEEKDKERKNVKGIRDDIEEEDDQEAYFRYMAENPTAGVVQEEEEDNLEYDSDGNPIAPTKKIIDPLPPIDHSEIDYPPFEKNFYNEHEEITNLTPQQLIDLRHKLNLRVSGAAPPRPGSSFAHFGFDEQLMHQIRKSEYTQPTPIQCQGVPVALSGRDMIGIAKTGSGKTAAFIWPMLIHIMDQKELEPGDGPIAVIVCPTRELCQQIHAECKRFGKAYNLRSVAVYGGGSMWEQAKALQEGAEIVVCTPGRLIDHVKKKATNLQRVSYLVFDEADRMFDMGFEYQVRSIASHVRPDRQTLLFSATFRKKIEKLARDILIDPIRVVQGDIGEANEDVTQIVEILHSGPSKWNWLTRRLVEFTSSGSVLLFVTKKANAEELANNLKQEGHNLGLLHGDMDQSERNKVISDFKKKDIPVLVATDVAARGLDIPSIKTVINYDVARDIDTHTHRIGRTGRAGEKGVAYTLLTPKDSNFAGDLVRNLEGANQHVSKELLDLAMQNAWFRKSRFKGGKGKKLNIGGGGLGYRERPGLGSENMDRGNNNVMSNYEAYKPSTGAMGDRLTAMKAAFQSQYKSHFVAASLSNQKAGSSAAGASGWTSAGSLNSVPTNSAQQGHNSPDSPVTSAAKGIPGFGNTGNISGAPVTYPSAGAQGVNNTASGNNSREGTGGSNGKRERYTENRGSSRHSHGETGNRHSDSPRHGDGGRHGDGYRHPESSSRHTDGHRHGENRHGGSAGRHGENRGANDGRNGESRKEAFNRESKMEPKMEPKVDSSKMDKVDSKTDKTADGFAVPEPPKRKKSRWDS [DDX42]”, for which, in the series on HeLa Kyoto [1], the “solubility in G1/S (log2)” value was -0.252. Moreover, the melting temperature in the series with HeLa Kyoto [2] (cell cycle stage: G1/S) was 47.2 °C; in the series on HeLa Kyoto [2] (cell cycle stage: mitosis) it was 48.8 °C. Further, the “solubility change mitosis (log2)” value with HeLa Kyoto [3] worked out at 0.145. The results for the thermal stability score in the series with HeLa Kyoto [4] (setting [5]) and with HeLa Kyoto [4] (cell cycle stage: mitosis) were 3.02 and 7.75, respectively.
For the sequence “MPAGRAARTCALLALCLLGAGAQDFGPTRFICTSVPVDADMCAASVAAGGAEELRSSVLQLRETVLQQKETILSQKETIRELTAKLGRCESQSTLDPGAGEARAGGGRKQPGSGKNTMGDLSRTPAAETLSQLGQTLQSLKTRLENLEQYSRLNSSSQTNSLKDLLQSKIDELERQVLSRVNTLEEGKGGPRNDTEERVKIETALTSLHQRISELEKGQKDNRPGDKFQLTFPLRTNYMYAKVKKSLPEMYAFTVCMWLKSSATPGVGTPFSYAVPGQANELVLIEWGNNPMEILINDKVAKLPFVINDGKWHHICVTWTTRDGVWEAYQDGTQGGSGENLAPYHPIKPQGVLVLGQEQDTLGGGFDATQAFVGELAHFNIWDRKLTPGEVYNLATCSTKALSGNVIAWAESHIEIYGGATKWTFEACRQIN [NPTX1]”, the “solubility in G1/S (log2)” value in the series with HeLa Kyoto [1] was found to be 0.224. Moreover, the melting temperature with HeLa Kyoto [2] (cell cycle stage: G1/S) came out at 54 °C; in the series with HeLa Kyoto [2] (cell cycle stage: mitosis), 55.4 °C. In addition, in the series on HeLa Kyoto [3], the “solubility change mitosis (log2)” value is -0.119. The results for the thermal stability score in the series on HeLa Kyoto [4] (setting [5]) and in the series with HeLa Kyoto [4] (cell cycle stage: mitosis) were 3.28 and 3.79, respectively.
Consider “MPATLLRAVARSHHILSKAHQCRRIGHLMLKPLKEFENTTCSTLTIRQSLDLFLPDKTASGLNKSQILEMNQKKSDTSMLSPLNAARCQDEKAHLPTMKSFGTHRRVTHKPNLLGSKWFIKILKRHFSSVSTETFVPKQDFPQVKRPLKASRTRQPSRTNLPVLSVNEDLMHCTAFATADEYHLGNLSQDLASHGYVEVTSLPRDAANILVMGVENSAKEGDPGTIFFFREGAAVFWNVKDKTMKHVMKVLEKHEIQPYEIALVHWENEELNYIKIEGQSKLHRGEIKLNSELDLDDAILEKFAFSNALCLSVKLAIWEASLDKFIESIQSIPEALKAGKKVKLSHEEVMQKIGELFALRHRINLSSDFLITPDFYWDRENLEGLYDKTCQFLSIGRRVKVMNEKLQHCMELTDLMRNHLNEKRALRLEWMIVILITIEVMFELGRVFF [RMND1]”, for which, in the series on HeLa Kyoto [1], the “solubility in G1/S (log2)” value is -0.145. The melting temperature with HeLa Kyoto [2] (cell cycle stage: G1/S) amounted to 52.1 °C; in the series with HeLa Kyoto [2] (cell cycle stage: mitosis), 51.2 °C. The “solubility change mitosis (log2)” value with HeLa Kyoto [3] is -0.125. In addition, the figures for the thermal stability score with HeLa Kyoto [4] (setting [5]) and in the series with HeLa Kyoto [4] (cell cycle stage: mitosis) were -1 and -0.87, respectively.
